The values below come from patent US20190330367A1.

Assay [1] concerns the target human PSMA, full-length (endogenous on LNCaP and CW22Rv1 cells, or stably overexpressed in HEK293T/17 cells) (human) (UniProt Q04609). In words: flow cytometry (summary sentence; differs from […] in Table 2).
The target of assay [2] is Avi-PSMA, extracellular part of human PSMA comprising an N-terminal Avi-tag (human) (UniProt Q04609). In words: native ELISA, biotinylated Avi-PSMA on streptavidin plate, mAb titrated.
For assay [3], the target named is rhPSMA, extracellular part of human PSMA (residues 44-750) (human) (UniProt Q04609). Put plainly: SPR (BIAcore 2000), mAb captured by anti-mouse IgG, rhPSMA as analyte, Langmuir 1:1 fit.
Assay [4] deals with human PSMA, full-length (endogenous on LNCaP and CW22Rv1 cells, or stably overexpressed in HEK293T/17 cells) (human) (UniProt Q04609). Put plainly: flow cytometry on live LNCaP cells, mAb 5 µg/mL, Alexa Fluor 647 secondary antibody; number printed beside the open (LNCaP) histogram.
Assay [5] has as its target Avi-PSMA, extracellular part of human PSMA comprising an N-terminal Avi-tag (human) (UniProt Q04609). In words: direct ELISA on biotinylated Avi-PSMA held on streptavidin-coated plates, HRP secondary antibody, chemiluminescence, normalised binding (%).
Assay [6] has as its target human PSMA, full-length (endogenous on LNCaP and CW22Rv1 cells, or stably overexpressed in HEK293T/17 cells) (human) (UniProt Q04609). Put plainly: flow cytometry titration on live LNCaP cells.
The target is the same in assay [7]. Put plainly: flow cytometry titration on live LNCaP cells, Alexa Fluor 647 secondary antibody, normalised binding (%).

pKd: −log10 of the molar value.

Consider 5D3 mAb (antibody), for which the pKd in assay [1] is 8.92; in assay [2] it was 9.85; in assay [3], 8.97. The substance also gave a median fluorescence (Alexa Fluor 647) in assay [4] of 10700. The same substance registered an EC50 (read off the curve) in assay [5] of 0.1 to 0.2 nM.

For the substance J591 mAb (antibody), the results for the pKd in assay [6], in assay [2] and in assay [3] were 7.82, 8.95 and 8.92, respectively. The substance also showed a koff in assay [3] of 0.000123 s⁻¹. Besides, the kon in assay [3] worked out at 102000 M⁻¹ s⁻¹. In addition, the results for the EC50 (read off the curve) in assay [7] and in assay [5] were 10 nM and 0.9 nM, respectively. In assay [4], the median fluorescence (Alexa Fluor 647) came to 10600.
